Laboratory results published in PMC8998336, “Structural and Biophysical Insights into SPINK1 Bound to Human Cationic Trypsin” (International Journal of Molecular Sciences, 2022).

Key:
Conditions in all cases: both partners purified
[1] = target: T1, human cationic trypsin (TRY1) p.S200A (human, UniProt P07477 24-247, p.S200A); assay: SPR; BIAcore T200, TRY1 p.S200A amine-coupled to a CM5 chip; SPINK1 3.125-50 nM, single-cycle kinetics, 37 °C, 50 µL/min; 20 mM Hepes pH 7.4, 150 mM NaCl, 2 mM CaCl2, 0.05% Tween20; 1:1 Langmuir model
T1 construct: human cationic trypsin (TRY1); cloned as amino acids 16-247 (signal peptide removed); His6-tag and propeptide removed after enterokinase digestion; the final structure contains amino acids 24-247; catalytic serine replaced by alanine; also called TRY1 S200A; not shown: His6, N-terminal, cleaved

[2] = target: T1, human cationic trypsin (TRY1) p.S200A; assay: ITC; MicroCal PEAQ-ITC, 37 °C; TRY1 p.S200A in the cell at 5-10 µM, SPINK1 in the syringe at 50-100 µM; 20 mM Hepes pH 7.4, 150 mM NaCl, 2 mM CaCl2; one-site binding model
[3] = target: T2, human cationic trypsin (TRY1) WT (human, UniProt P07477 24-247); assay: enzyme inhibition assay (Morrison tight-binding fit); 100 pM TRY1, 1 mM L-BAPA, SPINK1 15.625-2000 pM; 20 mM Hepes pH 7.4, 150 mM NaCl, 2 mM CaCl2, 0.05% Tween20; 37 °C; initial rates after a 5 h lag phase; Morrison's quadratic equation
T2 construct: human cationic trypsin (TRY1); cloned as amino acids 16-247 (signal peptide removed); His6-tag and propeptide removed after enterokinase digestion; not shown: His6, N-terminal, cleaved

Row | Binder | half-life t1/2 of the complex [1] [h] | kon [1] [M⁻¹ s⁻¹] | dH [2] [kcal/mol] | Ki [3] [pM]
1 | serine protease inhibitor Kazal-type 1 (SPINK1) WT (natural protein, human, UniProt P00995 24-79, looked up, N-terminal truncation removes the signal peptide; pET47b construct with His6-tag and HRV3C cleavage site; source: SHuffle T7 Express E. coli, purified (HisTrap HP, HRV3C digestion, His6-tag removed on the same HisTrap column); not shown: His6, N-terminal, cleaved) DSLGREAKCYNELNGCTKIYDPVCGTDGNTYPNECVLCFENRKRQTSILIQKSGPC | ~1 | 250000 | ~-10 | < 50
2 | serine protease inhibitor Kazal-type 1 (SPINK1) p.N34S (natural protein, human, UniProt P00995 24-79, looked up, made by site directed mutagenesis; pET47b construct with His6-tag and HRV3C cleavage site; also called SPINK1 N34S; p.N34S mutant; source: SHuffle T7 Express E. coli, purified (HisTrap HP, HRV3C digestion, His6-tag removed on the same HisTrap column); not shown: His6, N-terminal, cleaved) DSLGREAKCYSELNGCTKIYDPVCGTDGNTYPNECVLCFENRKRQTSILIQKSGPC | ~1 | 250000 | ~-10 | < 50
